{
  "source": "patent US20220153839A1",
  "about": "(NBE THERAPEUTICS, published 2022)",
  "binders": {"B1": {"name": "XBR1-402 chimeric rabbit/human IgG1 (antibody, V domains shown)", "VH": "QEQQKESGGGLFKPTDTLTLTCTASGFDISSYYMSWVRQAPGNGLEWIGAIGISGNAYYASWAKSRSTITRNTNLNTVTLKMTSLTAADTATYFCARDHPTYGMDLWGPGTLVTVSS", "VL": "SYELTQLPSVSVSLGQTARITCEGNNIGSKAVHWYQQKPGLAPGLLIYDDDERPSGVPDRFSGSNSGDTATLTISGAQAGDEADYYCQVWDSSAYVFGGGTQLTVTG", "notes": "Rabbit variable domains on human IgG1 constant regions (vector PIGG), lambda light chain, from HEK 293F cells, Protein A purified"}},
  "key": {"[1]": {"biological_target": "T1, StrepII-tagged human ROR1 extracellular domain (human, UniProt Q01973 30-406)", "T1 construct": "extracellular domain; also called ROR1-strep; strep-tagged human ROR1", "T1 sequence (Q01973 other isoform, or with tags, fused parts or gaps)": "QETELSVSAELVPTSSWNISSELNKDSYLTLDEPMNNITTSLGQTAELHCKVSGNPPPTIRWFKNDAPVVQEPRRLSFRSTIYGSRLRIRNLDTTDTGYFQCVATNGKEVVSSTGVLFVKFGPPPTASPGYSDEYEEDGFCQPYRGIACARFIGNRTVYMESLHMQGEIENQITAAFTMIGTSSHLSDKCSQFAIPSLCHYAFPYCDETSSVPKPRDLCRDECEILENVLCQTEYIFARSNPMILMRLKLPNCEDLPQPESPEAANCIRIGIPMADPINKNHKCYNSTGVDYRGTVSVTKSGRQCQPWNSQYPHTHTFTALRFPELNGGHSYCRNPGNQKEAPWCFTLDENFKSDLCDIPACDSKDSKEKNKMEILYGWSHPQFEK", "experiment": "SPR (Biacore T200); mAb captured by goat anti-human Fcγ IgG on CM5; ROR1-strep as analyte (Example 8); first of two independent measurements; batch of the parental IgG not stated", "procedure": "(§1) Affinity screening was then performed to select the best binders. Affinities were determined using a Biacore T200 instrument (GE Healthcare, Buckinghamshire, UK) and data was evaluated using Biacore Evaluation T200 V2.0 software. To capture mAbs, goat α-human Fc-gamma-specific IgG (Jackson ImmunoResearch, #109-005-098) was covalently immobilized on a CM5 chip (GE Healthcare, #BR-1005-30)."}, "[2]": {"biological_target": "T1, StrepII-tagged human ROR1 extracellular …", "experiment": "SPR (Biacore T200); mAb captured by goat anti-human Fcγ IgG on CM5; ROR1-strep as analyte (Example 8); second of two independent measurements; batch of the parental IgG not stated", "procedure": "as §1\nBriefly, for capturing mAbs in HEK293T supernatants, the undiluted supernatants were captured with a flow of 30 μl/min for 120 s."}, "[3]": {"biological_target": "T2, human CD20 on HEK293 cells (cell microarray) (human, UniProt P11836 1-297)", "T2 construct": "whole, on cells; Expressed on fixed HEK293 cells of the Retrogenix microarray", "T2 sequence (looked up)": "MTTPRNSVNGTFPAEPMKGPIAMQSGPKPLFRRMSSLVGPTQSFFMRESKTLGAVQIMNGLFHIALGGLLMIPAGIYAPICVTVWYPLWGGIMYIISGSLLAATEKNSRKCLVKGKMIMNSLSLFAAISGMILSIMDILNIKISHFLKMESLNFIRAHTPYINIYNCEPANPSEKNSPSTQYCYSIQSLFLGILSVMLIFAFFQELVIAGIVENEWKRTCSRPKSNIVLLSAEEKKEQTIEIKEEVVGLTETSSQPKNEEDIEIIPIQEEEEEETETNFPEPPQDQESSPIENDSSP", "experiment": "cell microarray (Retrogenix): fixed HEK293 cells over-expressing the protein; AlexaFluor647 anti-human IgG Fc detection", "procedure": "(§2) ZsGreen1 signals on the left indicate the expression levels of the various human membrane proteins.\n(§3) FIG. 28 provides an overview of the Retrogenix Cell Microarray Platform. […] An AlexaFluor647 anti-human IgG Fc detection antibody was used. Primary hits (duplicate spots) were identified by analyzing fluorescence (AlexaFluor647 and ZsGreen1) on ImageQuant. Vectors encoding all hits were sequenced to confirm their correct identities. […] Slides were analyzed as before (FIG. 29)."}, "[4]": {"biological_target": "T3, human ROR2 on HEK293 cells (cell microarray) (human, UniProt Q01974 34-943)", "T3 construct": "whole, on cells; Expressed on fixed HEK293 cells of the Retrogenix microarray", "T3 sequence (Q01974 34-943)": "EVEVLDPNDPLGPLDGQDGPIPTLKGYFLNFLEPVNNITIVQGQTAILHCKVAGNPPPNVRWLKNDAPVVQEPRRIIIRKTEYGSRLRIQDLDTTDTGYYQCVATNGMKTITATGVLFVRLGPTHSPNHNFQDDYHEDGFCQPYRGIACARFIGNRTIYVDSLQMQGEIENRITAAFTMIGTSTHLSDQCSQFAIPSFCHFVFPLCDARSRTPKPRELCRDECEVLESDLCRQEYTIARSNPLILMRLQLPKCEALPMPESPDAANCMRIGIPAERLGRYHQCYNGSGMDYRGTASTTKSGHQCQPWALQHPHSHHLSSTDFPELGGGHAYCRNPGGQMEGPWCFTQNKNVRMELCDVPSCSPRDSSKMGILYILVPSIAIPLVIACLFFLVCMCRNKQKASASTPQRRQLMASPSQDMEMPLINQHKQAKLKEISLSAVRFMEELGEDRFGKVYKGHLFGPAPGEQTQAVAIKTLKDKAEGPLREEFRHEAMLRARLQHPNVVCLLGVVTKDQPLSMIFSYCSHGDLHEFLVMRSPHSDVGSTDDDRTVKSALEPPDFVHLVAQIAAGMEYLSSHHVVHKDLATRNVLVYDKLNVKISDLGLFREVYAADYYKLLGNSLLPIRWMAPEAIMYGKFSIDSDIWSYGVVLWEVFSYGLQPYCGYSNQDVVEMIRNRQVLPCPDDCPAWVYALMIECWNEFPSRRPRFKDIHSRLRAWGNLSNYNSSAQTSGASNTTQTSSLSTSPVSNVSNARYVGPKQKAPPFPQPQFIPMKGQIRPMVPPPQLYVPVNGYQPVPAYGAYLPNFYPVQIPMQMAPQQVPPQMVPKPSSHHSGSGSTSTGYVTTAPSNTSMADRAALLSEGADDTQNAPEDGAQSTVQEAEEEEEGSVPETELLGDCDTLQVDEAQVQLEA", "experiment": "cell microarray (Retrogenix): fixed HEK293 cells over-expressing the protein; AlexaFluor647 anti-human IgG Fc detection", "procedure": "as §2, §3"}, "hROR2": {"biological_target": "T4, hROR2 (human, UniProt Q01974)", "T4 construct": "full length, on the cell surface; also called 63-12 / hROR2; ROR2 on T47D cells", "T4 sequence (Q01974 34-943 limits assumed)": "as the sequence (Q01974 34-943) above", "experiment": "flow cytometry on T47D cells (ROR2 positive, ROR1 negative); APC goat anti-human Fcγ", "procedure": "Flow cytometry: Cells were stained using standard flow cytometry methodology. Briefly, for purified anti-ROR1 Fab (FIG. 3), 0.1-1×10⁶ cells were stained with 1000 ng/100 μL of Fab on ice for 1 h. After washing twice with ice-cold flow cytometry buffer (PBS containing 1% (v/v) BSA, 0.1% sodium azide and 1 mM EDTA), the cells were incubated with a 1:1000 dilution of a mouse anti-His tag mAb conjugated to Alexa Fluor 488 (Qiagen) in 100 μL flow cytometry buffer on ice for 30 min. For purified anti-ROR1 IgG1 (FIG. 8), 0.1-1×10⁶ cells were blocked by 4% goat serum for 15 min at room temperature and then incubated with 100 ng/100 μL of IgG on ice for 1 h. After washing twice with ice-cold flow cytometry buffer, cells were stained with a 1:500 dilution of goat anti-human IgG, Fcγ pAbs conjugated to APC (Jackson ImmunoResearch) in 100 μL flow cytometry buffer on ice for 30 min. For commercial goat anti human ROR1 polyclonal antibody (FIG. 8), 0.1-1×10⁶ cells were stained with 200 ng/100 μL of Ab on ice for 1 h. […] Finally, 4′,6-diamidino-2-phenylindole (DAPI) was added to a final concentration of 100 ng/mL to exclude dead cells from the analysis. Cells were analyzed using a FACSCalibur instrument (BD Biosciences) and FlowJo analytical software (Tree Star, Ashland, Oreg.)."}, "hROR2-ECD-HIS": {"biological_target": "T5, hROR2-ECD-HIS (human, UniProt Q01974)", "T5 construct": "extracellular domain; also called hROR2-His; purified extracellular domain of hROR2", "T5 sequence (Q01974 34-403)": "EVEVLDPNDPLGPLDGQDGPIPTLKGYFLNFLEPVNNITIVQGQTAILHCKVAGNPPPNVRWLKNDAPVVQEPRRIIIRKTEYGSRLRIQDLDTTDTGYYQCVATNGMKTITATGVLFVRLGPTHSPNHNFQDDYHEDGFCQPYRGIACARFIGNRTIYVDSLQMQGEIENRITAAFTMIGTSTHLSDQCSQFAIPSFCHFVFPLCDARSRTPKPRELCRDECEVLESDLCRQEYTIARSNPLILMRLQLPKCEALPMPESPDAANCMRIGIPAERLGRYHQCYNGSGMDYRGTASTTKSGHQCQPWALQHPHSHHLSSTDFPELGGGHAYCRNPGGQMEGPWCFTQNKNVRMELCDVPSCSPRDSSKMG", "experiment": "Western blot of denatured, reduced samples; anti-human Fcγ-HRP", "excerpt": "The Western blots contained the following samples as indicated: Lane 1: K562 cells ectopically expressing full length of hROR1. Lane 2: untransfected K62 cells. Lane 3: purified extracellular domain of hROR1. Lane 4: purified extracellular domain of hROR2.\nWestern blotting: Cells or proteins were lysed by 1× sample buffer (containing 1% β-mercaptoethanol) and boiled before running on NuPAGE Novex 4-12% Bis-Tris gels (Invitrogen)."}},
  "data": [
    {"binder": "B1", "values": [
      {"measurement": "Kd", "setting": "[1]", "result": 5.1, "unit": "nM"},
      {"measurement": "koff", "setting": "[1]", "result": 0.00591, "unit": "s⁻¹"},
      {"measurement": "kon", "setting": "[1]", "result": "1.16e+06", "unit": "M⁻¹ s⁻¹"},
      {"measurement": "Kd", "setting": "[2]", "result": 5.1, "unit": "nM"},
      {"measurement": "koff", "setting": "[2]", "result": 0.00556, "unit": "s⁻¹"},
      {"measurement": "kon", "setting": "[2]", "result": "1.1e+06", "unit": "M⁻¹ s⁻¹"},
      {"measurement": "binding result", "setting": "[3]", "result": "no binding (tested: 20 µg/mL)"},
      {"measurement": "binding result", "setting": "[4]", "result": "no binding (tested: 20 µg/mL)"},
      {"measurement": "binding result", "setting": "hROR2", "result": "no binding (tested: 100 ng/100 µL)"},
      {"measurement": "binding result", "setting": "hROR2-ECD-HIS", "result": "no binding (tested: 2 µg/mL)"}
    ]}
  ]
}
